This assay addresses HLA-A2.1 (HLA-A*0201) on the surface of T2 cells (human).

For one molecule, Median Channel of Fluorescence of HLA-A2 Expression on T2 (median channel of fluorescence) results are on record in US20060045881A1, “Anti-cancer vaccines” (Board of Regents, The University of Texas System, priority 2004, published 2006).

Molecule KLGEFYNQMM (modifications not checked) [Influenza B nucleoprotein peptide (aa 85-94), P04665 85-94] had a Median Channel of Fluorescence of HLA-A2 Expression on T2 (median channel of fluorescence) of 194.
